Experimental findings from US7867500B2, “Cofactor that modulates steroid receptor activities” (The United States of America as represented by the …, priority 2004, dated 2011) are described below.

Holding throughout (format): cell-based
One assay has as its system TIF2.4m123. As to the kind of experiment: Mammalian two-hybrid assay in CV-1 cells with TIF2.4m123. The settings on record: equal amounts of protein. From the text:
(§1) FIG. 2A-2C illustrate the isolation and characterization of the partial clone of the protein that binds to TIF2.4. […] Five clones were obtained but only two (clones I and V) contained a protein that was needed for colony growth in the presence of the pSos/TIF2.4 fusion protein. After initial screening, only clone I (also named 6-6CL1) was selected for further investigation. FIG. 2B and FIG. 2C illustrate the selectivity of 6-6CL1 interactions with TIF2.4 in mammalian two-hybrid assays. Triplicate samples of CV-1 cells in 24-well plates were transiently transfected with the indicated GAL-DBD and VP16-AD plasmids along with the GAL4-regulated reporter, pFRLuc. The relative luciferase activity, normalized for the activity of the internal Renilla control, was determined and plotted as the average±S.D. The much lower activity of GAL/TIF2.4m123 was previously shown not to be due to unequal levels of protein expression (He et al., 2002). Similar results were obtained in three additional experiments. […] Triplicate samples of CV-1 cells in 24-well plates were analyzed as in (B&C) after being transiently transfected with GAL±6-6CL1 constructs and pFRLuc reporter along with VP16 chimeras of SRC-1 (FIG. 2D) or TIF2 (FIG. 2E) segments. Similar results for SRC-1 were obtained in two additional experiments (ND=not determined). […]

Another assay concerns the target T1, TIF2(1140C) (Homo sapiens, UniProt Q15596).
T1 construct: the PCR product of TIF2 with the TIF2-1140F and TIF2-1464R primers; expressed in transfected cells; host or cells: CV-1
T1 sequence (Q15596 1140-1464): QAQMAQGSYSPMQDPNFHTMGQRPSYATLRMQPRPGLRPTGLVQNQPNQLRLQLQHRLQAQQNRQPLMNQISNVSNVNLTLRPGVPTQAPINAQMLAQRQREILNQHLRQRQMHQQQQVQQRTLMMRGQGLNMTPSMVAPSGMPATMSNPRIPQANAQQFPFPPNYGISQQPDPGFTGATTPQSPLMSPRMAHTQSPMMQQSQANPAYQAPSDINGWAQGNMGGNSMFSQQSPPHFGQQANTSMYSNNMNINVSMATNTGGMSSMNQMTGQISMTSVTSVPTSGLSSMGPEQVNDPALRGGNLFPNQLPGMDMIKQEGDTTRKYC
Description: Mammalian two-hybrid assay in CV-1 cells with TIF2(1140C).
Text: as §1

In the next assay the test system is coll3 promoter. Description: ChIP assay on the endogenous coll3 promoter in U2OS.rGR cells. Particulars: 1 μM Dex, after 20 min of steroid treatment; HA/STAMP. The procedure: FIG. 5C illustrates that STAMP and GR are co-localized on the promoter of an endogenous regulated gene as detected by chromatin immunoprecipitation (ChIP) assays. U2OS.rGR cells were treated with 1 μM Dex and then processed after 0 to 80 min as described in Example 1. The binding of GR and STAMP to the coll3 promoter was determined by the ability of PCR to amplify coll3 promoter sequences in the DNA that had been co-immunoprecipitated by anti-GR and anti-HA (to immobilize HA/STAMP) antibodies, respectively (upper panel). […] Similar results were obtained in two additional experiments.
The basic method of Ma et al. (Ma et al. (2003) Methods Enzymol. 364: […], was used with modifications. Two days before harvest, U2OS.rGR cells were seeded into 150 mm dishes at 3,000,000 cells per dish in phenol-red free medium with 10% charcoal/dextran-stripped fetal bovine serum. Each dish was transfected on the next day with 15 μg HA-STAMP and 60 μl Liopfectamine. On the third day, after brief ligand treatment, formaldehyde (37%) was added directly into the medium to a final concentration of 1% (37° C., 10 min), which was followed by glycine to a final concentration of 0.125 M (room temperature, 5 min with shaking). Cells were washed with (4° C.) cold PBS twice and harvested by scraping into 5 ml of cold (4° C.) PBS with a protease inhibitor cocktail (Roche). […]

B1: 6-6CL1: STAMP fragment amino acids 623-834, coactivator interaction domain (CID) (protein)
chain: ENTPKENSMKVREWNNKGGHCCKLETQELEPKFNLMQILQDNGNLSKMQARIAFSAYLQHVQIRLMKDSGGQTFSASWAAKEDEQMELVVRFLKRASNNLQHSLRMVLPSRRLALLERRRILAHQLGDFIIVYNKETEQMAEKKSKKKVEEEEEDGVNMENFQEFIRQASEAELEEVLTFYTQKNKSASVFLGTHSKISKNNNNYSDSGAKG
For B1, the “interaction with TIF2.4m123” value in the assay with TIF2.4m123 was “did not interact”. Also, the “interaction with TIF2(1140C)” value in the assay with TIF2(1140C) was “does not interact”.

B2: STAMP: SRC-1 and TIF2 Associated Modulatory Protein, 1277 amino acid human polypeptide, expressed from transfected plasmid (protein)
chain: MARDLEETASSSEDEEVISQEDHPCIMWTGGCRRIPVLVFHADAILTKDNNIRVIGERYHLSYKIVRTDSRLVRSILTAHGFHEVHPSSTDYNLMWTGSHLKPFLLRTLSEAQKVNHFPRSYELTRKDRLYKNIIRMQHTHGFKVFHILPQTFLLPAEYAEFCNSYSKDRGPWIVKPVASSRGRGVYLINNPNQISLEENILVSRYINNPLLIDDFKFDVRLYVLVTSYDPLVIYLYEEGLARFATVRYDQGAKNIRNQFMHLTNYSVNKKSGDYVSCDDPEVEDYGNKWSMSAMLRYLKQEGRDTTALMAHVEDLIIKTIISAELAIATACKTFVPHRSSCFELYGFDVLIDSTLKPWLLEVNLSPSLACDAPLDLKIKASMISDMFTVVGFVCQDPAQRASTRPIYPTFESSRRNPFQKPQRCRPLSASDAEMKNLVGSAREKGPGKLGGSVLGLSMEEIKVLRRVKEENDRRGGFIRIFPTSETWEIYGSYLEHKTSMNYMLATRLFQDRMTADGAPELKIESLNSKAKLHAALYERKLLSLEVRKRRRRSSRLRAMRPKYPVITQPAEMNVKTETESEEEEEVALDNEDEEQEASQEESAGFLRENQAKYTPSLTALVENTPKENSMKVREWNNKGGHCCKLETQELEPKFNLMQILQDNGNLSKMQARIAFSAYLQHVQIRLMKDSGGQTFSASWAAKEDEQMELVVRFLKRASNNLQHSLRMVLPSRRLALLERRRILAHQLGDFIIVYNKETEQMAEKKSKKKVEEEEEDGVNMENFQEFIRQASEAELEEVLTFYTQKNKSASVFLGTHSKISKNNNNYSDSGAKGDHPETIMEEVKIKPPKQQQTTEIHSDKLSRFTTSAEKEAKLVYSNSSSGPTATLQKIPNTHLSSVTTSDLSPGPCHHSSLSQIPSAIPSMPHQPTILLNTVSASASPCLHPGAQNIPSPTGLPRCRSGSHTIGPFSSFQSAAHIYSQKLSRPSSAKAGSCYLNKHHSGIAKTQKEGEDASLYSKRYNQSMVTAELQRLAEKQAARQYSPSSHINLLTQQVTNLNLATGIINRSSASAPPTLRPIISPSGPTWSTQSDPQAPENHSSSPGSRSLQTGGFAWEGEVENNVYSQATGVVPQHKYHPTAGSYQLQFALQQLEQQKLQSRQLLDQSRARHQAIFGSQTLPNSNLWTMNNGAGCRISSATASGQKPTTLPQKVVPPPSSCASLVPKPPPNHEQVLRRATSQKASKGSSAEGQLNGLQSSLNPAASVPITSSTDPAHTKI
As for B2, in the assay on coll3 promoter, the “localization on the coll3 promoter” value is given as “induced to localize on the coll3 promoter”.
